Assays:
[1] = tested on: SH-SY5Y human neuroblastoma cells; assay: Flow cytometry quantitation of cellular uptake, SH-SY5Y; format: cell-based
Cellular toxicity = format: cell-based; settings: Figure S6
[2] = ref 5b; cited from earlier work

Substance: L-Aβ42-TAMRA: L-Aβ42 N-terminally labeled with 5(6)-Carboxytetramethylrhodamine (TAMRA)
- Cell fluorescence after incubation at 4 °C (membrane binding) ([1]; SH-SY5Y, 2 h, 4 °C, flow cytometry (Figure S12)): low fluorescence
- Influence of N-terminal TAMRA modification on cellular toxicity (Cellular toxicity): not influence cellular toxicity to any significant degree

Substance: magainin
- Potency of L- and D-enantiomers as pore-forming antibacterial peptides [2]: equally potent

Substance: cecropin
- Potency of L- and D-enantiomers as pore-forming antibacterial peptides [2]: equally potent

Substance: L-Aβ42: natural L-stereoisomer of the 42 amino acid isoform of Amyloid β
- Fraction taken up through chirality-dependent mechanisms (class I) ([1]; interpretation of the ~5:1 ratio): approximately 80%

Substance: melittin
- Potency of L- and D-enantiomers as pore-forming antibacterial peptides [2]: equally potent

Reference: PMC6517241 (Chembiochem : a European journal of chemical biology, 2019)
